Assay results published in patent US20040028672.

System: LL-37

## Pseudomonas aeruginosa elastase
  degradation of LL-37 (SDS-PAGE) and loss of bactericidal activity against E. faecalis: LL-37 is degraded and inactivated by P. aeruginosa elastase
